Assay results as given in patent US20200121814A1 (GENERAL HOSPITAL, published 2020).
Bridge positions count the residues as written; N and C are the ends. Ends that are not written are not given here. * marks the point of attachment. Biotin = O=C1N[C@H]2[C@H](CS[C@H]2CCCCC(=O)*)N1

Key:
[1] = molecular target: HER3 on cells (MDA-MB-453, moderate HER3; HCC-1954, low HER3) (human) (UniProt P21860); assay: cell binding on MDA-MB-453 cells (moderate HER3), 250 nM peptide, streptavidin-HRP and ABTS
[2] = molecular target: HER3 extracellular domain (ECD) (R&D Systems) (human) (UniProt P21860); assay: ELISA of purified phage on adsorbed HER3 ECD, anti-M13-HRP and ABTS
HER3 extracellular domain (ECD) (R&D Systems) (human), sequence (P21860 20-643): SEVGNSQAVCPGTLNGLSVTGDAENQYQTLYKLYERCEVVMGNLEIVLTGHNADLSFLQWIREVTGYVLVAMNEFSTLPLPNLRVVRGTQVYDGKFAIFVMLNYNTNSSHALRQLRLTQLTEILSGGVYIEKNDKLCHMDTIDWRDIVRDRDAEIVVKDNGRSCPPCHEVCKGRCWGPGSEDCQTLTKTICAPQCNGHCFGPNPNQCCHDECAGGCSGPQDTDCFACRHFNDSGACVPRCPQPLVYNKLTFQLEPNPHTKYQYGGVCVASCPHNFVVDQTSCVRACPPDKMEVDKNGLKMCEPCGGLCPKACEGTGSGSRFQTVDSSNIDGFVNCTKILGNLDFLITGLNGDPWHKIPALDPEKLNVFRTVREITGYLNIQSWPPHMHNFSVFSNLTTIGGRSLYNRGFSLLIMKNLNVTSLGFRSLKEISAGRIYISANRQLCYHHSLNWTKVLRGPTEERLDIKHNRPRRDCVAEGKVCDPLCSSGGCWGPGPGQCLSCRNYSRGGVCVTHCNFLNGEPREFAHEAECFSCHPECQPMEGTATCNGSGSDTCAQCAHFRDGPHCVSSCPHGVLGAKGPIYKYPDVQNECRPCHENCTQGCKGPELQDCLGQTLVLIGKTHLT

[3] = molecular target: T1, HER3 extracellular domain (ECD) (R&D Systems) (human, UniProt P21860 20-643); assay: phage binding to HER3, normalized to parent phage
T1 construct: extracellular domain; Adsorbed to Maxisorp plates in the ELISAs; also called HER3 ECD; ERBB3
T1 sequence (P21860 20-643): as above

[4] = molecular target: T2, EGFR extracellular domain (UniProt P00533 25-645, limits assumed); assay: peptide ELISA on immobilized ECD, 250 nM peptide, streptavidin-HRP and ABTS
T2 construct: extracellular domain; Immobilized on plate for peptide ELISA

[5] = molecular target: T3, HER2 extracellular domain (UniProt P04626 23-652, limits assumed); assay: as above
T3 construct: extracellular domain; Immobilized on plate for peptide ELISA; also called ErbB2; neu

[6] = molecular target: T1, HER3 extracellular domain (ECD) (R&D …); assay: as above
[7] = molecular target: bovine serum albumin (bovine) (UniProt P02769); assay: peptide ELISA on immobilized protein, 250 nM peptide, streptavidin-HRP and ABTS
bovine serum albumin (bovine), sequence (P02769 25-607 limits assumed): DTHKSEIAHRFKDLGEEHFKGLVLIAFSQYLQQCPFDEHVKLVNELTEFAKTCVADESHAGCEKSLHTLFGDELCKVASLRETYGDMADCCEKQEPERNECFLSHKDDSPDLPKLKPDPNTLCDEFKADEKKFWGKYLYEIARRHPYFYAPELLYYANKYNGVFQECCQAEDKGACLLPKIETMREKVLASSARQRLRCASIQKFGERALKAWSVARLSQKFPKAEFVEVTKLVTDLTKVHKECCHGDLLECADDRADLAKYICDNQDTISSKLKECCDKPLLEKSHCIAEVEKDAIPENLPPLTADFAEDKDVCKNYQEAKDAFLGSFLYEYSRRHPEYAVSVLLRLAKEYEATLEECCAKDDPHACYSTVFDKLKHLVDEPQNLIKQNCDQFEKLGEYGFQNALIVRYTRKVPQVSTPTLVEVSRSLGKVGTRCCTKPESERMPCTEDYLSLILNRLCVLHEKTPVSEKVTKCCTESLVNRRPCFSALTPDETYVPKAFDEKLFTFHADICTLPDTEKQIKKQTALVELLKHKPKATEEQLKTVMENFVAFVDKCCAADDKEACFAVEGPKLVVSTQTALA

HER3 on cells (MDA-MB-453, moderate HER3; HCC-1954, low HER3) (human), sequence (P21860 20-1342): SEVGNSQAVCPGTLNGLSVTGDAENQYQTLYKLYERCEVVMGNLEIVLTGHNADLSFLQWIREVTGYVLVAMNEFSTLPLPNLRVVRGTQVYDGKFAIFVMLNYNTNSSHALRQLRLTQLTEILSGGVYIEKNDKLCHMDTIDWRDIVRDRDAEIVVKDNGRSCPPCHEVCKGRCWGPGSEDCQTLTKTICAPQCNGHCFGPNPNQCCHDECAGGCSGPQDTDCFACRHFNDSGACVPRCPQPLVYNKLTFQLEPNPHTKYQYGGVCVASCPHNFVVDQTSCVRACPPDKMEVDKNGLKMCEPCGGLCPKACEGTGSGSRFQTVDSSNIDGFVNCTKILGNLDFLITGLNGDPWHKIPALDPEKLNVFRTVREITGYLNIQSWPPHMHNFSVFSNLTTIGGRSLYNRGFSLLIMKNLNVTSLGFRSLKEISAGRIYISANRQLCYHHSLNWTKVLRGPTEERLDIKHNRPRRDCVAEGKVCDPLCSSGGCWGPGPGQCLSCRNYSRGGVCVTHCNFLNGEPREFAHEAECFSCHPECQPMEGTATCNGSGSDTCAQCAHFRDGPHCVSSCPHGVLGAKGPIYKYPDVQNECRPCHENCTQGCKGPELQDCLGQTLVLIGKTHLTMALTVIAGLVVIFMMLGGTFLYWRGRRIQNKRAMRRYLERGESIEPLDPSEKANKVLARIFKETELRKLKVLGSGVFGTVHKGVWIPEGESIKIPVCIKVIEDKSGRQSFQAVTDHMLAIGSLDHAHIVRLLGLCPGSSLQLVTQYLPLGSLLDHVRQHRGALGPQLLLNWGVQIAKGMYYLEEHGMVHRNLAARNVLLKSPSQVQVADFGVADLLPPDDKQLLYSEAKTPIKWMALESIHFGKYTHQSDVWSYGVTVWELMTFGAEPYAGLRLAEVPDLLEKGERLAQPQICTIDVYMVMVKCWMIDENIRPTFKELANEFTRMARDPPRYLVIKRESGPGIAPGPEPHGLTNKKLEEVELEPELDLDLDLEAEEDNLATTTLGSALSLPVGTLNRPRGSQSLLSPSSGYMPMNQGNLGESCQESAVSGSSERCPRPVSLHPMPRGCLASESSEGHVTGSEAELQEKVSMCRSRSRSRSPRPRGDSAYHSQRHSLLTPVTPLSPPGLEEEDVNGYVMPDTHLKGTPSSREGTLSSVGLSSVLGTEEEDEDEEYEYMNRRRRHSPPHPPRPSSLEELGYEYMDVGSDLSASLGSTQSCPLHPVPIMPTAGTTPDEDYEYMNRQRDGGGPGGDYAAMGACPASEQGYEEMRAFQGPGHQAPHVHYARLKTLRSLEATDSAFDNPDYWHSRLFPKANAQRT

control peptide
absorbance (405 nm) [1]: 0.12 absorbance

control phage bearing no peptide
absorbance (background subtracted, 405 nm) [2]: 0.007 absorbance

CAPTKFRSC (peptide, not shown: large carriers) [phage M1 (alanine mutant at position 2 of the HER3P1 binding sequence)]
decrease of binding against parent (HER3P1) phage [3]: ≥ 50%

CLATKFRSC (peptide, not shown: large carriers) [phage M2 (alanine mutant at position 3 of the HER3P1 binding sequence)]
decrease of binding against parent (HER3P1) phage [3]: ≥ 50%

CLPTKFASC (peptide, not shown: large carriers) [phage M6 (alanine mutant at position 7 of the HER3P1 binding sequence)]
decrease of binding against parent (HER3P1) phage [3]: ≥ 50%

CLPAKFRSC (peptide, not shown: large carriers) [phage M3 (alanine mutant at position 4 of the HER3P1 binding sequence)]
decrease of binding against parent (HER3P1) phage [3]: ≥ 50%

CLPTKFRAC (peptide, not shown: large carriers) [phage M7 (alanine mutant at position 8 of the HER3P1 binding sequence)]
decrease of binding against parent (HER3P1) phage [3]: ≥ 50%

B1: HER3P1 (biotin-conjugated, N-terminal tri-glycine linker) (peptide)
peptide: Biotin-GGGCLPTKFRSC
modifications: disulfide 4-12 (inferred); not fully specified
notes: The formulas of the description print a beta A before G-G-G; also called HER3 peptide; the peptide
absorbance (405 nm) [4]: 0.21 absorbance | absorbance (405 nm) [5]: 0.22 absorbance | absorbance (405 nm) [6]: 0.82 absorbance | absorbance (405 nm) [7]: 0.15 absorbance
